4 molecules from US20200399369A1 (Sanofi, published 2020) can be followed below.

Experiment [1] deals with T1, human CD38 (human, UniProt P28907 43-300, limits assumed).
T1 construct: also called hCD38; huCD38
The experiment in a line: SPR.

Experiment [2] addresses T2, cynomolgus monkey CD38 (cynomolgus monkey, UniProt Q5VAN0 44-301, limits assumed).
T2 construct: also called Cyno CD38; cynoCD38
Put plainly: SPR.

Experiment [3] concerns the target T1, human CD38. Put plainly: FACS.
For experiment [4], the target named is T2, cynomolgus monkey CD38. Put plainly: FACS.
The target in experiment [5] is T1, human CD38. The experiment in a line: ELISA.
Experiment [6] addresses T2, cynomolgus monkey CD38. The experiment in a line: ELISA.

B1: AntiCD38_hhy_1195 (antibody, V domains shown)
VH: QVQLVESGGGVVQPGRSLRLSCAASGFTFSSYGMYWVRQAPGKGLEWVAVIWYDGSNKYYADSVKGRFTISRDNSKNTLYLQMNSLRAEDTAVYHCARDPGLRYFDGGMDVWGQGTTVTVSS
VL: DIQLTQSPSFLSASVGDRVTITCRASQGISSYLAWYQQKPGKAPKLLIFAASTLHSGVPSRFSGSGSGTEFTLTISSLQPEDFATYYCQQLNSFPYTFGQGTKLEIK
As for B1, the figures for the Kd with human CD38 [1] and with cynomolgus monkey CD38 [2] were 40 nM and 26 nM, respectively. Moreover, the half-maximal effective concentration (EC50) with human CD38 [3] came to 38 nM; with cynomolgus monkey CD38 [4], 15 nM; with human CD38 [5], 1.4 nM; with cynomolgus monkey CD38 [6] it was 0.86 nM.

B2: AntiCD38_hyb_5739 (antibody, V domains shown)
VH: QVQLQQSGPELVRPGTSVKVSCKASGYAFTTYLVEWIKQRPGQGLEWIGVINPGSGSTNYNEKFKGKATLTVDRSSTTAYMHLSGLTSDDSAVYFCARYAYGYWGQGTTLTVSS
VL: DIVMTQSQKFMSASVGDRVSITCKASQNVGTAVAWYQQQPGHSPKQLIYSASNRYTGVPDRFTGSGAGTDFTLTISNIQSEDLADYFCQQYSTYPFTFGSGTKLEIK
For the molecule B2, the EC50 is 0.3 nM with human CD38 [3], 0.5 nM with cynomolgus monkey CD38 [4], 0.12 nM with human CD38 [5] and 0.09 nM with cynomolgus monkey CD38 [6].

B3: AntiCD38_hyb_6284 (antibody, V domains shown)
VH: QVQLLQSGAELVRPGVSVKISCTGSGYSFTNYAVHWVKQSHVKSLEWIGVISPYYGDTTYNQKFTGKATMTVDKSSSTAYMELARLTSEDSAIYFCARRFEGFYYSMDYWGQGTSVTVSS
VL: DVVMIQTPLSLPVSLGDQASISCRPSQSLVHSNGNTYLNWYLQRPGQSPKLLIYKVSKRFSGVPDRFSGSGSGTDFTLKISRVEAEDLGVYLCSQSTHVPLTFGSGTQLEIK
For the molecule B3, the EC50 with human CD38 [3] was 0.4 nM; with cynomolgus monkey CD38 [4] it was 0.7 nM; with human CD38 [5], 0.11 nM; in the experiment with cynomolgus monkey CD38 [6], 0.13 nM.

B4: AntiCD38_hhy_992 (antibody, V domains shown)
VH: QVQLVQSGAEVKKPGASVKVSCKVSGYTLTEFSIHWVRQAPGQGLEWMGGFDPEDGETIYAQKFQGRVIMTEDTSTDTAYMEMNSLRSEDTAIYYCTTGRFFDWFWGQGTLVTVSS
VL: EIILTQSPAILSLSPGERATLSCRASQSVISRFLSWYQVKPGLAPRLLIYGASTRATGIPVRFSGSGSGTDFSLTISSLQPEDCAVYYCQQDSNLPITFGQGTRLEIK
For the molecule B4, the results for the Kd with human CD38 [1] and with cynomolgus monkey CD38 [2] were 0.365 nM and 6.12 nM, respectively. Besides, the EC50 with human CD38 [3] was found to be 100 nM; in the experiment with cynomolgus monkey CD38 [4] it was 288 nM; with human CD38 [5], 0.09 nM; in the experiment with cynomolgus monkey CD38 [6], 0.08 nM.
